Experiment [1] addresses TbMscL A85C, spin-labeled with MTSSL (Mycobacterium tuberculosis) (UniProt P9WJN5). Briefly: SEC.
The target of experiment [2] is TbMscL E102C, spin-labeled with MTSSL (Mycobacterium tuberculosis) (UniProt P9WJN5). In words: SEC. In general terms: SEC sorts molecules by how far they enter the pores of the column.
Experiment [3] shares this target. In words: SEC; samples thawed after PELDOR measurements and run over SEC.
Experiment [4] addresses TbMscL F5C, spin-labeled with MTSSL (Mycobacterium tuberculosis) (UniProt P9WJN5). In words: SEC.
Experiment [5] has as its target TbMscL F34C, spin-labeled with MTSSL (Mycobacterium tuberculosis) (UniProt P9WJN5). Briefly: SEC.
In experiment [6] the target is TbMscL F79C, spin-labeled with MTSSL (Mycobacterium tuberculosis) (UniProt P9WJN5). Briefly: SEC.
Experiment [7] deals with TbMscL F84C, spin-labeled with MTSSL (Mycobacterium tuberculosis) (UniProt P9WJN5). In words: SEC.
The target in experiment [8] is TbMscL F88C, spin-labeled with MTSSL (Mycobacterium tuberculosis) (UniProt P9WJN5). Briefly: SEC.
Experiment [9] deals with TbMscL I23C, spin-labeled with MTSSL (Mycobacterium tuberculosis) (UniProt P9WJN5). In words: SEC.
In experiment [10] the target is TbMscL K99C, spin-labeled with MTSSL (Mycobacterium tuberculosis) (UniProt P9WJN5). In words: SEC.
For experiment [11], the target named is TbMscL K100C, spin-labeled with MTSSL (Mycobacterium tuberculosis) (UniProt P9WJN5). In words: SEC.
Experiment [12] deals with TbMscL K100R1-F88W (Mycobacterium tuberculosis) (UniProt P9WJN5). Briefly: SEC.
Experiment [13] concerns the target TbMscL K100R1-L89W (Mycobacterium tuberculosis) (UniProt P9WJN5). Briefly: SEC.
In experiment [14] the target is TbMscL L2C, spin-labeled with MTSSL (Mycobacterium tuberculosis) (UniProt P9WJN5). In words: SEC.
Experiment [15] concerns the target TbMscL L42C, spin-labeled with MTSSL (Mycobacterium tuberculosis) (UniProt P9WJN5). In words: SEC.
Experiment [16] deals with TbMscL L72C, spin-labeled with MTSSL (Mycobacterium tuberculosis) (UniProt P9WJN5). In words: SEC.
For experiment [17], the target named is TbMscL L72R1-L89W (Mycobacterium tuberculosis) (UniProt P9WJN5). Briefly: SEC.
Experiment [18] shares this target. In words: SEC; samples thawed after PELDOR measurements and run over SEC.
Experiment [19] deals with TbMscL L73C, spin-labeled with MTSSL (Mycobacterium tuberculosis) (UniProt P9WJN5). In words: SEC.
Experiment [20] has as its target TbMscL L73R1-L89W (Mycobacterium tuberculosis) (UniProt P9WJN5). Briefly: SEC.
The target of experiment [21] is TbMscL L89C, spin-labeled with MTSSL (Mycobacterium tuberculosis) (UniProt P9WJN5). Briefly: SEC.
The target of experiment [22] is TbMscL N70C, spin-labeled with MTSSL (Mycobacterium tuberculosis) (UniProt P9WJN5). In words: SEC.
Experiment [23] concerns the target TbMscL N70R1-L89W (Mycobacterium tuberculosis) (UniProt P9WJN5). Briefly: SEC.
Experiment [24] addresses TbMscL R98C, spin-labeled with MTSSL (Mycobacterium tuberculosis) (UniProt P9WJN5). In words: SEC.
Experiment [25] addresses TbMscL V48C, spin-labeled with MTSSL (Mycobacterium tuberculosis) (UniProt P9WJN5). In words: SEC.
For experiment [26], the target named is TbMscL V112C, spin-labeled with MTSSL (Mycobacterium tuberculosis) (UniProt P9WJN5). Briefly: SEC.
Experiment [27] concerns the target TbMscL Y87C, spin-labeled with MTSSL (Mycobacterium tuberculosis) (UniProt P9WJN5). Briefly: SEC.

In turn, “TbMscL A85C, spin-labeled with MTSSL (from UniProt P9WJN5 1-151) (natural protein)” gave a stoichiometry N in experiment [1] of 5.
Consider “TbMscL E102C, spin-labeled with MTSSL (from UniProt P9WJN5 1-151) (natural protein)”, for which the stoichiometry N in experiment [2] and in experiment [3] was 5 throughout.
“TbMscL F5C, spin-labeled with MTSSL (from UniProt P9WJN5 1-151) (natural protein)” came in with a stoichiometry N in experiment [4] of 5.
On to “TbMscL F34C, spin-labeled with MTSSL (from UniProt P9WJN5 1-151) (natural protein)”, for which the stoichiometry N in experiment [5] turned out to be 5.
As for “TbMscL F79C, spin-labeled with MTSSL (from UniProt P9WJN5 1-151) (natural protein)”, the stoichiometry N in experiment [6] came to 5.
“TbMscL F84C, spin-labeled with MTSSL (from UniProt P9WJN5 1-151) (natural protein)” had a stoichiometry N in [7] of 5.
“TbMscL F88C, spin-labeled with MTSSL (from UniProt P9WJN5 1-151) (natural protein)” had a stoichiometry N in experiment [8] of 5.
As for “TbMscL I23C, spin-labeled with MTSSL (from UniProt P9WJN5 1-151) (natural protein)”, in [9], the stoichiometry N worked out at 5.
Substance “TbMscL K99C, spin-labeled with MTSSL (from UniProt P9WJN5 1-151) (natural protein)” came in with a stoichiometry N in experiment [10] of 5.
Regarding “TbMscL K100C, spin-labeled with MTSSL (from UniProt P9WJN5 1-151) (natural protein)”, the stoichiometry N in experiment [11] was 5.
“TbMscL K100R1-F88W (from UniProt P9WJN5 1-151) (natural protein)” displayed a stoichiometry N in [12] of 5.
“TbMscL K100R1-L89W (from UniProt P9WJN5 1-151) (natural protein)” registered a stoichiometry N in experiment [13] of 5.
Consider “TbMscL L2C, spin-labeled with MTSSL (from UniProt P9WJN5 1-151) (natural protein)”, for which the stoichiometry N in experiment [14] was determined as 5.
In [15], “TbMscL L42C, spin-labeled with MTSSL (from UniProt P9WJN5 1-151) (natural protein)” showed a stoichiometry N of 5.
Consider “TbMscL L72C, spin-labeled with MTSSL (from UniProt P9WJN5 1-151) (natural protein)”, for which the stoichiometry N in [16] was determined as 5.
“TbMscL L72R1-L89W (from UniProt P9WJN5 1-151) (natural protein)”: the stoichiometry N in experiment [17] and in [18] was 5 in each case.
“TbMscL L73C, spin-labeled with MTSSL (from UniProt P9WJN5 1-151) (natural protein)” came in with a stoichiometry N in experiment [19] of 5.
As for “TbMscL L73R1-L89W (from UniProt P9WJN5 1-151) (natural protein)”, the stoichiometry N in [20] was 5.
“TbMscL L89C, spin-labeled with MTSSL (from UniProt P9WJN5 1-151) (natural protein)” registered a stoichiometry N in experiment [21] of 5.
The substance “TbMscL N70C, spin-labeled with MTSSL (from UniProt P9WJN5 1-151) (natural protein)” displayed a stoichiometry N in experiment [22] of 5.
As to “TbMscL N70R1-L89W (from UniProt P9WJN5 1-151) (natural protein)”, in experiment [23], the stoichiometry N amounted to 5.
In [24], “TbMscL R98C, spin-labeled with MTSSL (from UniProt P9WJN5 1-151) (natural protein)” came in with a stoichiometry N of 5.
For “TbMscL V48C, spin-labeled with MTSSL (from UniProt P9WJN5 1-151) (natural protein)”, in experiment [25], the stoichiometry N worked out at 5.
On to “TbMscL V112C, spin-labeled with MTSSL (from UniProt P9WJN5 1-151) (natural protein)”, for which the stoichiometry N in [26] was 5.
Consider “TbMscL Y87C, spin-labeled with MTSSL (from UniProt P9WJN5 1-151) (natural protein)”, for which the stoichiometry N in experiment [27] was 5.

A word on the stoichiometry N: it is a count of units in the complex or per binding partner.

(Values after PMC6787021.)
